Assay [1] has as its target CR1 soluble CR1 (Homo sapiens) (UniProt P17927). As to the kind of experiment: SPR. The settings on record: cited from earlier work.
Assay [2] has as its target CR1 CCP22-30 (Homo sapiens) (UniProt P17927). Nature of the assay: SPR. The settings on record: cited from earlier work.
The target of assay [3] is CR1 bimodular fragment CCP24-25 His6 (human). Nature of the assay: SPR; BIAcore 3000, multiple cycle; CCP24-25 amine-coupled on CM5 (1,000 RU); MBL injected at 20 µl/min in buffer with 3 mM EDTA (methods: HBS-P; legend of Figure 4: 50 mM TEA, 145 mM NaCl, 0.05% P20, pH 7.4); global 1:1 Langmuir fit; apparent KD = kd/ka. (In general: Surface plasmon resonance follows binding to a sensor surface in real time, without labels.)

Chain of MBL (P11226 21-248): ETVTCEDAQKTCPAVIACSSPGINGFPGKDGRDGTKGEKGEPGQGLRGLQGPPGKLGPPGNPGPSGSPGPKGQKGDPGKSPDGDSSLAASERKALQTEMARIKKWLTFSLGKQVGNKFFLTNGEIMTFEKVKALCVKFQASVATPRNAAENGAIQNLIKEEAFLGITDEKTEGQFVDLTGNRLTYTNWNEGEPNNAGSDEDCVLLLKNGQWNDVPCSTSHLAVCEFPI

MBL (from UniProt P11226): the Kd is 0.76 nM in assay [1] and 0.37 nM in assay [2].

Usually koff stands for a measure of how fast the partners let go of each other. In the case of “Recombinant mannose-binding lectin (MBL) (from UniProt P11226 21-248) (natural protein)”, in assay [3], the Kd stood at 0.65 nM and the koff amounted to 0.00109 s⁻¹.

Source of the values: article PMC5845983.
